According to paper PMC5451065:

What was measured:
[1] = biological target: cytochrome c oxidase (complex IV) (rat (endogenous in rat liver mitoplasts)); conditions: for Amax of the cytochrome c oxidase reaction, rat liver mitoplasts without cytochrome c: scale: μg atom of the oxygen/min per 1 mg of the protein
[2] = biological target: ubiquinol–cytochrome c reductase (complex III) (rat (endogenous in rat liver mitoplasts)); conditions: for Amax of the succinate:cytochrome c reductase reaction, rat liver mitoplasts without cytochrome c: scale: μmol of the cyt c /min × mg of the protein

| Substance | Amax(mut)/Amax(wt) of the cytochrome c oxidase reaction [1] [%] | Km of the cytochrome c oxidase reaction, rat liver mitoplasts without cytochrome c [1] | Amax of the cytochrome c oxidase reaction, rat liver mitoplasts without cytochrome c [1] | Amax(mut)/Amax(wt) of the succinate:cytochrome c reductase reaction [2] [%] | Km of the succinate:cytochrome c reductase reaction, rat liver mitoplasts without cytochrome c [2] | Amax of the succinate:cytochrome c reductase reaction, rat liver mitoplasts without cytochrome c [2] |
| --- | --- | --- | --- | --- | --- | --- |
| horse cytochrome c T78A/K79A/I81A/F82T (from UniProt P00004 1-105) (natural protein) | 61.8 | 5.31 μM of cyt c | 0.453 | 3.2 | 8.94 μM of cyt c | 0.004 |
| horse cytochrome c T78A/K79A/I81A/F82T/T89A (from UniProt P00004 1-105) (natural protein) | 92.3 | 5.31 μM of cyt c | 0.677 | 2.4 | 5.08 μM of cyt c | 0.003 |
| horse cytochrome c I75G/G77R/T78I (from UniProt P00004 1-105) (natural protein) | 86.7 | 6.47 μM of cyt c | 0.636 | 19.5 | 20.7 μM of cyt c | 0.024 |
| horse cytochrome c T78S/K79P (from UniProt P00004 1-105) (natural protein) | 47.5 | 5.04 μM of cyt c | 0.348 | 3.2 | 17.4 μM of cyt c | 0.004 |

The remaining lines, values ahead:

| Amax(mut)/Amax(wt) of the cytochrome c oxidase reaction [1] [%] | Km of the cytochrome c oxidase reaction, rat liver mitoplasts without cytochrome c [1] | Amax of the cytochrome c oxidase reaction, rat liver mitoplasts without cytochrome c [1] | Amax(mut)/Amax(wt) of the succinate:cytochrome c reductase reaction [2] [%] | Km of the succinate:cytochrome c reductase reaction, rat liver mitoplasts without cytochrome c [2] | Amax of the succinate:cytochrome c reductase reaction, rat liver mitoplasts without cytochrome c [2] | Substance |
| --- | --- | --- | --- | --- | --- | --- |
|  | 5.4 μM of cyt c | 0.733 |  | 20.9 μM of cyt c | 0.123 | wild-type horse cytochrome c (from UniProt P00004 1-105) (natural protein) |
| 92.1 | 5.77 μM of cyt c | 0.675 | 44.7 | 20.7 μM of cyt c | 0.055 | horse cytochrome c I81L/F82S/A83S/G84A (from UniProt P00004 1-105) (natural protein) |
| 38.6 | 4.96 μM of cyt c | 0.283 | 6.5 | 11 μM of cyt c | 0.008 | horse cytochrome c T78N/K79Y/M80I/I81M/F82N (from UniProt P00004 1-105) (natural protein) |
| 97.8 | 6.19 μM of cyt c | 0.717 | 8.1 | 1.24 μM of cyt c | 0.01 | horse cytochrome c K79V/I81L/F82R (from UniProt P00004 1-105) (natural protein) |
| 23.6 | 5 μM of cyt c | 0.173 | 13 | 24.7 μM of cyt c | 0.016 | horse cytochrome c I81Y/A83Y/G84N (from UniProt P00004 1-105) (natural protein) |
